Test results: the DeepSol protein solubility set

Test: soluble on expression in E. coli; label from the status in PepcDB or PDB records

Soluble on expression in E. coli, not soluble:
MGSDKIHHHHHHMKVSGGEVPPFFKEGFFFTSEELTHLINVCSSTSAIISVLKDSKYRRSLVLYLKRPLSKDALLLIQTLLTTLEREDLSFGVKELEYMAYHDPLTGLPNRRYFFELGNRYLDLAKREGKKVFVLFVDLAGFKAINDTYGHLSGDEVLKTVSKRILDRVRRSDVVARYGGDEFTILLYDMKEEYLKSLLERILSTFREPVRVENKHLSVTPNIGVARFPEDGENLEELLKVADMRMYKAKEMKVPYFSLS
MGSDKIHHHHHHMKYEIVLKGSYALLKVFLSTGESVVVEPGAMVYMKGPIEVKTSATGGVWKALKRAILGGENFFMNTYISRGESEIGLAPQLPGDIDVIPLKDILYVQSTSFLACDPSVEMDVSFGGLKSFFSGEGIFLLKFIGHGDVAVSSFGGIKSVELQPGEEFTVDTGHVVAFDGTVKWNVRTFGGLKSTLFGGEGLVCTFTGPGRVYIQTRNYPAFVEWIKSLVPRQTGSR
MGSDKIHHHHHHMLDLLNLPGIKPVDMRHESKGLVIVAEPETVEVPLCGGCNTLMHKHGTRKNKFMDTPLYMEPVRLEVQRPRFRCESCGKMSMPELSFLDDKRRATKRLVDVIRQQCLGTTFHALAEQTGVAVNTVKNIAHDLINELSQTVRYETPVIMGIDEVNLAGGYRCVITNLATNNVFDMLEHRTQEHLKPFFKALPDADKVEWVCTDMWRPFKRSFAQYLPNAKLVIDKFHVVKMASEALEVERKNYQAQLSKEDRIYVKKSIRWLTLKRPGNLTPAEQKALEVVKQAIPELAVAYDFKEAFFCIYDELDKQNAQNAFEAWENSLPDQGLVAFKKLAKTVHNHYDDIFAYWDAPFSITNGYTEGLNGLIKMSNRLGRGYGYPIIRAKTLYSKEARKVGSGIRAGHGKVEYGPHIPTLLKQAESGELD
MGSDKIHHHHHHMLDVHKDIKKIFHEEQVLAEAAARYGFSKDQVRFLADAENYVYECMKDNQPYILKITHTIRRSSDYMMGEMEWLRHLAIGGISVAKPLPSLNGKDVEAVPDGNGGSFLLRVYEKAPGQKVDESDWNETLFYELGRYTGSMHSLTKSYKLSNPAFKRAAWAEEEQLKLRKYVPEDQIKVFQQADSLMNELRRLPKSQDNYGLVHADLHHGNFNWDHGKITAFDFDDIGYNWFVNDISILLYNVLWYPVVPYDDKAAFTEEFMTHFMKGYWEENELDPAWLMIIPDFLRLRHMLIYGLLHQMFDLNTIGEEEKEMLAGFRRDIENGTPITAFDFSALV
MGSDKIHHHHHHMLELTPNLNMNSKKALYVQLYEYIKKEIKDGTIVPFTKLPAKRKLAIHLQVSKNTVEAAYEQLLAEGYIESISRKGYFVCKIEQMVHVEDSEERIEEVLFQEKSYKFDFTQTGIDTNAFPFNMYRKIVNEVWQPYNNELLFLGHPQGEASLREEITNYLYESRGVRCSASQIVLGAGTQILVKLLFQLLKGSNYAVENPGYHRKMVVFEQGEEKVQMLSLDRDGICMADLENSDANVVFVTPSHQFPYGMIMPITRRTQLLQWAKKAKDRYIIEDDYDSEFRYSGRPIPALQGLDTEGKVIYMGTLSKALLPSLRMSYIVLPKNLIIKYQKEYLFYTQSVSRMDQEVIRKFLNEGYWEKHIHKMRVVYRKKRDRLVFEIEKYFSNRVEVIGEDSGLHILLQVHNGMREEELIQEAAKYSIKVYPVSTYYKDGTAPENVVLLGFAILSEEEIAKAIQLLNTAWFRKKVKKHPHT
MGSDKIHHHHHHMLFNQLQNETNLTNSEKEIARYLLNQNLDLATLSAQKLGELTFTSKPTVLRFIKKLGYKKFNEFCYDLISEQERIKKSRDLLKHININKDSNLSDLLIKVPNLYNQAINRTNSLMDQENLNLIVKKLNTLDYIDFYGSGITEGLAQIGSFKFSSIGKFGGVYSNVNEHYLTSIHGINKHGAIIISFTGGNKAMINAAKDLKKLNIYSLGIGGLENEELKNNCSSYLTIPFENLSLGMESIVPSVAINYVIDILFTSLTIKNLSQNVTNALKVKNLRK
MGSDKIHHHHHHMLGTLKKMRVQLDDAQQVQYQLVVGDELLTLNPLIGKQLTLTHTGNIFCCNCGKKSKKSYSQGHCFVCMQKLASCDMCIMKPETCHYDQGTCREPEWAQSHCFVPHYVYLANTSGVKVGITRHTQLPTRWIDQGATQGLPIFKVSTRQLSGLVEVELAKLVNDKTHWQAMLKGHADDIDLNVKAAELIPQIEAKLHEIGMQKGDYSIERLDETIQPIHYPIDTFPKKITSHNFDKNGVVSGILQGIKGQYLMFDTGVINIRKFSSYEISVEHD
MGSDKIHHHHHHMLIEIPNVFSKQEVNQLREQLDARTWIDGNQTSGMMASTRKRNQQLDKDDPVALQIGELIMARLLAHPLFVSAALPLQFYPPLFNRYQGGDTFGYHIDNAIRSTSDGMVRTDLSATLFLSELNAYEGGELVIQDTYGQQSIKLAAGSLVLYPSTSLHQVTPVTSGERTSAFMWLQSMVRDEGQRRLLFQLDQSIQTLTAQQAAEQELFNLTGVYHNLLRRWSEL
MGSDKIHHHHHHMLIFQCHGDRCLSSNLQEHFTDLKKLVNGKSLLMGEKNVQKRLIRLGQILRVFLDKDRVSSIWLSRNFQITPRTIQRDLAALKESGFPIHEIQKGVYRLGKDLIKNLEVFDETELALVITLRNVVGQLGRPFQKAADGLFNSLYDAASSMPVYVRMDESIPLDSSLLNRIVKSIRLKKIAGFYYKSGKPHQVNMEPYRVVHFGGFWYLVGKDTGDSVIKRYALDRISDFKMARTPFRKIPENLDSAIQGSANIWFSTDQNLVVKISVDASSSGYFKRRKVFPTQEITEEREDGSLIVTFRVGRYEAIQDILKSWLPHITILEPAEFRDAFLADMKKWVQRQEQVGS
MGSDKIHHHHHHMLIFVMKPRSNPVTGGFHSDKFANWNTMPLETLPVISLAGEPDALSRELGESFRTFGFAMVRDHGIDPDLIARAWDLTAQFFALPEAEKRSYYLDGLAGARGYTPFGTEIAKGARLHDLKEFWHVGRDLPAGHPLSASMPPNVWPARPEGFRQTFETLYGEFDKVGARILSRIAVWLGLDENWFDPAIEDGNSVMRLLHYPPVPDAESGAIRAGAHEDINLITLLLGAEEAGLELLSRQGEWIGVSPPEGALVVNIGDMLQRLTNHVLPSTTHRVRNPEGERARFSRYSMPFFLHLRSDFPFVTLPQCISDENPDRYPVSITADDYLQERLREIGLRK
MGSDKIHHHHHHMLIHQQYTRHGPDYRFGEQMTFLDVKQTFGFSHVRVGRWVTREESLIAANLVFDSLADLAFILHLPPLTLGLRQSLSLAFGHGGQKGVQAHYAPAARELALAKNAGAGALAHEFWHAFDHYVAPKAFQRVTGRFTCASDLWLADLPLIDHPLNQRLVEIFRVTLLSEDNLAPSDYVRRAIALDKRYGSQYFAKPTEMMARAFEACIESYQGIQNPYLVSGTRYSSLAKEGAYPDEPHRQRIFKALIAYFEPLGIALGKAG
MGSDKIHHHHHHMLKELHLQQVGPAAHFDVAFADRLNIFTGDNGLGKSFLLDIAWWVMTTNWAEQPAYPQRVKGENPQITAVVSNKKNIREYQSQFDFSEQQWRNLQMPPLLKEVVIYVRVDGSFSIFDPARQRDIAYNFNPNTLWNGLKSKDKVICNGLIQDWVTWQNQPNKYPFELFSNVIKKLAPHPSEWIEVGETTRVSIEDVRDIPTVNLPYGNVPVTQTSAGMKRILGLAYLLVWTWYEHKKASELRQQKPVNQIVLLIDEIESHLHPRWQRVILPAILSVVTELQPRMKIQALVTTHSPLILASLEPNFHEQEDKLFLFKLQDSEVSLDEVPWSKQGDIVGWLTSDIFGLKQARSKEAEIAIEAAEAWMRDDDMNTFPENLRISTQIHQELQRVLPGHDPFWPRWIVTTEKRNSGLSGV
MGSDKIHHHHHHMLKFLKDSKVDFTVRCCGVSSIPCALFFLTRSTNRTYSILVKEWKNIEKLLDPFFTKGIDQLSMVDALRILMRIGDTLNGVRNHERLYRYIDSLFPAQKIPGGLEIWAFDLFEGKEVVFKEGDDLRRALKISLSFPILYRPYEDRYVPITWITGVPEGELTVLFDVKKEKNPPRNALEYLFLSTTARTKHLERERIKKAKSLRIACTSLSPVSTTRRAYEEFSRFFEEVVL
MGSDKIHHHHHHMLKSQEIRQKAPELDSLRLGSGWKSEELNKAQIIIESSFGHSHPGSAHLDTLVDEAFKSIDDNGGRGAKYFVTDICDGETQGHDGMNYSLASRDIMTNLMEIHVQATPFDAGIFIASCDKAVPAHLMAIARLDMPSILVPGGIMNAGPNMLTLEQIGTYNAQYERGEITKEQYEHYKQNACPSCGACSFMGTASTMQVMSEALGIALPGTALIPVTSKELKLAAKNAGKQILKLIELNIKPSEIMTKKAFENAIMVHAAIAGSSNCLLHIPAIAHELGMDIEPELFDEIHKKIPYILNIRPSGFYPGSYFWNAGGVPAIMEEIKEFLHLDVMTVTGKTLGENLEDLKNSGYYEEHDKLITSLGIKKEDVIRTKENPIQSQGAIAILKGNLAPGGAVVKHSAISKKLMQVVLKARVFNCEEDAIKSVLTKNIKPGDAVFVRYEGPKGSGMPEMFYTTEAIASDHELVDSTALITDGRFSGATRGPAIGHVSPEASEGGPIAFVQEGDLIKIDIPARKLDIIGTNGIEKSEKEIENILKERSQNWVKPAPRYTKGILGLYTRCASSPMKGGYME
MGSDKIHHHHHHMLMRDVIPQVLNRGTAMLTQDLLETPPQKTFHHAIDIYLKDSNAFMNTYFARYFEWQGICRERWFHECIHDNLLAAGGVFVTKRAHQEYVEETFPFQRVDCYLNTFQVKQCSAYLLFRFCVGGKPVSLGYQQIVFADRDKRISRFPHGIIERVKEYELVLPGLAS
MGSDKIHHHHHHMLPLPPYPLPNSIMWTQIDTHISQVTGEKFQSQQRRSVGGGCINQGYAVSNGEITYFVKLNLASQVAMFEAEALGLKEMLATASIRIPQPICWGVAENSSYIVLEWLELGNGNSNTSLRDAPRWEEMGRKLAAMHQASSSQGFGWKINNTIGSTPQINTWTADWTEFYIKHRLGYQFQLARRRGGSFPQQEKLLAAIRELLTHQVQPSLVHGDLWGGNAGCTASGEPVIFDPATYFGDREVDIAMTELFGGFPAAFYKGYNEVFPLDAGYEQRKTLYNLYHILNHFNLFGGGYASQANRMIDQILR
MGSDKIHHHHHHMLPMADQIQTLQEQVLQARSNGQKLNIVGGGTKSFMGRQGCAEAGTLSLAEHTGVVEYHPVELVLTVRAGTPLKEIEAVLAEQGQCLHFEPPHFGDASTIGGTLACNLSGPARPWAGSVRDQVLGIRLLNGKGEHLRFGGQVMKNVAGYDVSRLQAGAMGTLGVITEISLKVMPKPAATTTLVREMTMDEVVEYMNRRAGEPKPITGACWVDGKVYLRLAGAKSAVEATAEQWGGQVLADGEQFWRQVQDMQHPFFDDPELPLWRFSVDSTAKTPELDGPWMIDWAGSQRWYRGQASLDQLEPLARAAGGQVSLFRGGDRTGEVMHGQPQALKTIQQRVKKSFDPDAIFNPGRLYSWL
MGSDKIHHHHHHMLPSAPCSGWSHHTLKPLGAGTRGTGYIMPVTNMIHLDNRDHADRQSHGQPAHVLMLEQSPGVVPKSLLGKGLTYLREQWPKLIRYVENGSWPISNNPCENAIRLFCVGRRGWLFSDTVDGANACANLYTLVETSKTNGIDLYRYLAWLFRRLPLAKTVDDYDALLPWRMPVDIHVDPFDKERSTIDHEQENHSAGSLSA
MGSDKIHHHHHHMLQAQLKPANLVVTCNQTHSTMAQTDAPSTPAKPVIHAKQTAESGSSAQLRHLSRYLVRNLGMLNAAFGDLPLSPVQAHALFEIGKQPLTIKELACKLSIDKSNASRAIKHLIDKNLAQSQIHPRDSRCLVVQLTPAGKKLLLKLDTQQNQLFQEILAQLTPAQTSQIEEALMLYNQAVHNAKHQSGCHIRQATAQDDAAIAKVIRDVSAEYGLTADKGYSVADPTLDCLSQIYSQAGANYWIIELDGRILGGAGIAPLANNEGVCELQKMYFMPEIRGKGLATRVALMALDFARETGYQSCYLETTAALNEAVKLYEKLGFVHLSAPLGNTGHDACEMPMLLELNQ
